For one data set, the target named is T1, Dcc1 triple mutant (Saccharomyces cerevisiae, UniProt P25559 90-380, K364A;R367A;R380A).
T1 sequence: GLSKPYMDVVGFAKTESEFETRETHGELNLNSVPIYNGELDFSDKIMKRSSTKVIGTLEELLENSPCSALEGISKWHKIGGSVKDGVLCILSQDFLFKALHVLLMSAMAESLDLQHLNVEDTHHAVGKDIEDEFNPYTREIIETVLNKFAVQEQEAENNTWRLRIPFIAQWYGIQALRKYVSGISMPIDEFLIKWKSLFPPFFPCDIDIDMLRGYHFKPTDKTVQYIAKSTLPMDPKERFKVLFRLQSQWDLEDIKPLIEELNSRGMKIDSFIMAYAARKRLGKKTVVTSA
The experiment in a line: EMSA; EMSA, 6% native gel in 0.5x TBE, 4 C, DNA 1 uM unless stated; binding buffer, salt and pH not stated (protein storage 10 mM Tris pH 7.5, 150 mM NaCl, 0.5 mM TCEP for the complex). The note with it: protein: recombinant.

For the next data set, the target named is T2, Dcc1 dWH3 (Saccharomyces cerevisiae, UniProt P25559 90-318, del319-380).
T2 sequence: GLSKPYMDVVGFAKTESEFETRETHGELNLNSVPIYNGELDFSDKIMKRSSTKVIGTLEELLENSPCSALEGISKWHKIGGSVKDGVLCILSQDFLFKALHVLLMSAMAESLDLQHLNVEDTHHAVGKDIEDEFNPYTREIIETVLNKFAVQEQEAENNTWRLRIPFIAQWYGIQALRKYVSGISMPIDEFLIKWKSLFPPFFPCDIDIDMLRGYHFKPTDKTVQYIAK
The experiment in a line: EMSA; also none at reduced DNA, overexposed gel; EMSA, 6% native gel in 0.5x TBE, 4 C, DNA 1 uM unless stated; binding buffer, salt and pH not stated (protein storage 10 mM Tris pH 7.5, 150 mM NaCl, 0.5 mM TCEP for the complex). The note with it: protein: recombinant; label: 5' 6-FAM on sense strand.

Consider two molecules from article PMC5376975, “Structural studies of RFCC tf18 reveal a novel chromatin recruitment role for Dcc1”.

As for TTTTTTTTTTTTTTTTTTTTTTTTT (ssDNA) [25-mer oligo d(T)], the binding result in the data set with Dcc1 triple mutant (label: 5' 6-FAM) is recorded as “no binding”.

B1: 22-mer dsDNA (dsDNA)
DNA 1: TCTCCACAGGAAACGGAGGGGT
DNA 2: ACCCCTCCGTTTCCTGTGGAGA
B1: the binding result with Dcc1 triple mutant (label: 5' 6-FAM on sense strand) and in the data set with Dcc1 dWH3 was “no binding” in each case.
